According to PMC10720262 (Cell Reports, 2023):

Target: recombinant full-length PfCSP (Plasmodium falciparum circumsporozoite protein, strain NF54) (Plasmodium falciparum NF54, UniProt P19597)
Sequence (P19597 20-375): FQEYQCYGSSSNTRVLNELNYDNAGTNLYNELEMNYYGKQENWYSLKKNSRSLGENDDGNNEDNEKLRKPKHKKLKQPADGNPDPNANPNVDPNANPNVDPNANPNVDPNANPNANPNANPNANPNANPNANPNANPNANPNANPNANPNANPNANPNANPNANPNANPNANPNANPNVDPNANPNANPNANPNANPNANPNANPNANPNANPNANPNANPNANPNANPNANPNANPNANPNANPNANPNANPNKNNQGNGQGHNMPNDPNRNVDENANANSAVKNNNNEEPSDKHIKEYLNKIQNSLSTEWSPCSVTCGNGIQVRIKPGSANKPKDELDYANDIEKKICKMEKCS

Row | Binder | binding result
1 | CL-437092 (antibody, V domains shown) VH: QVQLVESGGGVVQPGGSLRLSCAASGFTLSSFGIHWVRQAPGKGLEWVALIWHDGSMKYYADSVKGRFTISRDNSKNTVDIQMNSLRVEDTAVYYCARPGIGSPGDHYTMDVWGHGTTVTVSS VL: not shown | binds
2 | CL-437492 (antibody, V domains shown) VH: QEQLVESGGGVVQPGNSLRLSCVASGFTFSNHGMHWVRQAPGKGLEWVAIIWYDGSQKFYSDSVKGRFTISRDNSKNTLYLQMNSLRAEDTAIYYCARVDWSGNDWGWFDPWGQGTLVTVSS VL: EIVLTQSPDTLSLSPGERATLSCRASQTLSSRHLAWYQQKPGQAPRLLIYGASSRATGIPDRFSGSGSGTDFTLTINRLEPEDFAVFYCQQYGRLWTFGQGTKVEIK | binds
3 | CL-437716 (antibody, V domains shown) VH: QVHLVESGGGVVQPGRSLRLSCAASGFIFSNSGMHWVRQVPGKGLEWVAIIWYDGSNKYYADSVKGRFTISRDNSKNTLYLQMNSLRAEDTAVYYCVRAYSSSSSYYYGMDVWGQGTTVTVSS VL: not shown | binds
4 | CL-437762 (antibody, V domains shown) VH: QVQLVESGGGVVQPGRSLRLSCAASGFTFSNYGMYWVRQAPGKGLEWVAVIWYDGSNKYYADSVKGRFTISRDNSKNTLYLQMNSLRAEDTAFYYCARPQYSGSGSYFDYWGQGTLVTVSS VL: not shown | binds
5 | CL-437862 (antibody, V domains shown) VH: QVQLVESGGGVVQPGRSLRLSCAASGFTFSNSGMHWVRQVPGKGLEWVAIIWYDGGNKYYADSVKGRFTISRDNSKNTLYLQMNSLRAEDTAVYYCARAYYDILTSYDKDCCYGMDVWGQGTTVTVSS VL: not shown | binds
6 | CL-437899 (antibody, V domains shown) VH: QEQLVESGGGVVQPGRSLRLSCEVSGFTFSNHGLHWVRQAPGKGLEWVAIIWYDGSNKFYAESVKGRFTISRDNSKNRMYLEMNSLRVEDSAVYYCVRAYSRSSSDYKYGMDVWGQGTTVTVSS VL: DIQMTQSPSTLSASVGDRVIITCRASQSISSWLAWYQQRPGKAPELLIYKASSLETGVPSRFSGSGSGTEFTLTISSLQPDDFATYFCQQYSSYWTFGQGTKVEIK | binds
7 | CL-437907 (antibody, V domains shown) VH: QVQLVESGGGVVQPGRSLRLSCVASGFTFSHSGMHWVRQTPGKGLEWVAIIWHDGSIKYYVESVKGRFTISRDNSKNTLYLEMRSLRAEDTAVYFCVRSYSESLYDKYGMDVWGQGTTVTVSS VL: DIQMTQSPSTLSASVGDRVTISCRASQSISSWLAWFQQKPGKAPKLLIYAASSLQSGVPSRFSGSGSGTDFTLTISSLQPDDFATYYCQQFNSYWTFGQGTKVEVK | binds
8 | CL-437934 (antibody, V domains shown) VH: QVQLVASGGAVVQPGRSLRLSCAASGFTFSNSGMHWVRQAPGQGLEWVAIIWYDGGNKYYADSVKGRFTISRDNSKNTLYLQMNSLRAEDTAVYYCVRAYYEILTTYNKDCCYGMDVWGQGTTVTVSS VL: not shown | binds
9 | CL-438096 (antibody, V domains shown) VH: QVVLVESGGGVVQPGRSLRLSCEASGFIFSSRGMHWVRQTPGKGLEWVAIIWYDGSNKFYADSVKGRFTISRDNSKNTLYLQMNSLRAEDTAVYYCARSYRTSLDKKYGMDVWGQGTTVTVSS VL: DIQMTQSPSTLSASVGDRVTITCRASQSISSWLAWYQQKPGKAPKLLIYKASSLESGVPSRFSGSGSGTEFTLTISSLHPDDFATYFCQQYNSYWTFGQGTKVEIK | binds
10 | CL-438145 (antibody, V domains shown) VH: QVQLVESGGGVVQPGRSLRLSCAASGFTFSDYGMHWVRQAPGKGLEWVAIIWYDGSNKYYAASVKDRFIISRDNFKNTLYLQMNSLRAEDTAVYYCARVNFDDSGSWDYWGQGTLATVSS VL: DIQMTQSPSTLSASVGDRVTITCRASQNINTRLAWYQQKVGTAPKLLIYTASSLESGVPSRFSGSGSGTEFTLTISSLQPDDFATYYCQQYYRYWTFGQGTKVEIK | binds
11 | CL-440324 (antibody, V domains shown) VH: QVQLVESGGGVVQPGRSLRLSCAASGFTFRNHGLHWVRQAPGKGLEWVAIIWFDGSNKFYADSVKGRFTISRDNSKNTLYLQMNSLRAEDTAIYYCARVSSHDNGDYGDFDYWGQGTLVTVSS VL: DIQMTQSPSTLSASVGDRVTITCRASQNISNWLAWYQQKPGKAPKLLIYKASSLESGVPSRFSGSGSGTEFTLTISGLQPDDFATYYCQQYKTYWTFGQGTQVEIK | binds
12 | CL-440422 (antibody, V domains shown) VH: QVQLVESGGGVVQPGRSLRLSCAASGFTFSNFGMHWVRQTPDRGLEWVAIIWFDGSNTFYTDSVKGRFTISRDNYMNTLYLQMNSLRAEDTAVYYCARSFYSDSAGSLFDYWGQGTLVTVSS VL: DIQMTQSPSTLSASVGDRVTITCRASQNINNWVAWYQQKPGKAPKLLIYKASDLETGVPSRFSGSGSGTEFTLTISGLQPDDFATFYCLQNNHYWTFGQGTKVEIK | binds
13 | CL-440582 (antibody, V domains shown) VH: QVQLVESGGGVVQPGRSLRLSCAASGFTLNNYGIHWVRQAPGKGLEWLSLIWYDGSNKFYADSVKGRFTVSRDNSQNTVSLHMSSLSVDDTAVYYCARPGIGVPGDKYTMDVWGQGTTVTVSS VL: DIQMTQSPSTLSASVGDRVTITCRASQTISAWLAWYQQKLGKAPKILIYKASILESGVPSRFSGSGSGTEFTLTINSLQPDDFATYYCQQYNYDWTFGQGTKVEIN | binds
14 | CL-441734 (antibody, V domains shown) VH: QVQLVESGGGVVQPGRSLRLSCAASGFTFSSHGMHWVRQAPVKGLEWVAVIWYDGSNKYYADSVKGRFTISRDNSKNTLYLQMNSLRAEDTAVYYCARVEYSRSSGDYYYYGLDVWGQGTTVTVSS VL: EIVMTQSPATLSVSPGERATLSCRASQSVSSNLAWYQQKPGQAPRLLIYGASTRATGIPARFSGSGSGTEFTLTISSLQSEDFAVYYCQQYDNWWTFGQGTKVEIK | binds
15 | CL-441816 (antibody, V domains shown) VH: QEQLVESGGGVVQPGRSLRLSCATSGFTFSTYGLHWVRQSPGKGLEWVTVIWYDGSNKFYADSVKGRFTISRDNSKNTLYLQMNSLRAEDTAVYYCARALYSSRWYGAFDIWGQGTMVTVSS VL: QSVLTQPPSVSGAPGQRVTISCTGSSSNIGAGYDVHWYQLLPGTAPKLLIYGNSNRPSGVPDRFSGSKSGTSASLAITGLQAEDEADYYCQSYIRSLSGSVFGGGTKLTVL | binds
16 | CL-442127 (antibody, V domains shown) VH: QAQLVESGGGVVQPGKSLRLSCAASRFTFRNYGMHWVRQGPVKGLEWVALIWHDGSNKFYSDSVRDRFTISRDNSKNKLFLQMNSLTADDTALYYCVRSNYDGSGTYGWFGPWGQGTLVTVSS VL: EIVLTQSPGTLSLSPGERATLSCRASQSVISNYLAWYQQKPGQAPRLLIYGASTRDIGIPDRFSGSGSGTDFTLTISRLEPEDFAVYFCHQYGSSFTFGPGTKVDFK | binds
17 | CL-444387 (antibody, V domains shown) VH: QVHLVESGGGVVQPGRSLRLSCVASGFSFSSYGMHWVRQAPGKGLEWVAIIWYDGSYTYYADSVKGRFTISRDNSKNTLYLQMNSLRVEDTAVYYCAKVGLSYNGRTGAFDIWGQGTMVTVSS VL: not shown | binds
18 | CL-444424 (antibody, V domains shown) VH: QVQLVESGGGVVQPGRSLRLSCTASGFTFSNYGMHWIRQAPGKGLEWVAIIWFDGSSQYYADSVKGRFTISRDNSKNTLYLQMNSLRAEDTAVYYCVRALYDSGSLFDFWGLGTLVTVSS VL: DIQMTQSPSTLSASVGDRVTITCRASQNISSLLAWYQQKPGKAPKLLIYKASSLESGVPSRFSGNGSGTEFTLTVSSLQPDDFATYSCLQYNNYWTFGQGTKVEIK | binds
19 | CL-444469 (antibody, V domains shown) VH: QVQLVESGGGVVQPGRSLRVSCEVSGLTFSNYGMHWVRQAPGKRLEWVAIIWYDGSNKYYADSVKGRFTISRDNSKNTLYLQMNSLRAEDTAVYYCARSYGSGSRGDYYGMDVWGQGTTVTVSS VL: DIQMTQSPSTLSASVGDRVTITCRASQSISSWLAWFQQKPGKAPKLLIYKASSLESGVPSRFSGSGSGTEFTLTISSLQPDDFATYYCQQYYSYWTFGQGTKVEIK | binds
20 | CL-444588 (antibody, V domains shown) VH: QVQLVESGGGVVQPGRSLRLSCAASGFTFSGYGMHWVRQTPGKGLGWVALIWYDGSNKFYADSVRGRFTISRDNSKNTLYLQMNSLRAEDTAIYYCARSYPSGSRGDKYGMDVWGQGTTVTVSL VL: DIQMTQSPSTLSASVGDRVTITCRASQSISTWLAWFQQKPGKAPKLLIYKASSLESGVPSRFTGSGSGTEFTLTISSLQPDDFATYYCQQYNSYWTFGQGTKVEIK | binds
21 | CL-444592 (antibody, V domains shown) VH: QVQLVESGGGVVQPGRSLRLSCAASGFTFSSYGMHWVRQAPGKGLEWVAVIWYDGSNKYYADSVKGRFTISRDNSKNTLYLQMNSLRAEDTAVYYCARDGNWNYNYYYGMDVWGQGTTVTVSS VL: DIQLTQSPSFLSASVGDRVTITCWASQGISSYLAWYQQKPGKAPKLLIYAASTLQSGVPSRFSGSGSGTEFTLTISSLQPEDFATYYCQQLNSYPPTFGQGTRLEIK | binds
22 | CL-444639 (antibody, V domains shown) VH: QVQLVESGGGVVQPARSLRLSCAASGFTFSSYGMHWVRQAPGKGLEWVAVIWYDGSNKYYADSVKGRFTISRDNSKNTLYLQMNSLRAEDTAVYYCAKVGDFYGSGSYPHYYGMDVWGQGTTVTVSS VL: not shown | binds
23 | CL-444653 (antibody, V domains shown) VH: QVQLVESGGGVVQPGRSLRLSCTASGFTFSTYGMHWVRQAPGKGLEWVAIIWYDGGNKFYADSVKGRFTISRDNSKDTLYLQMNSLRAEDTAVYYCAKAWYKVDDKYSMDVWGQGTTVTVSS VL: DIQMTQSPSTLSASVGDRVTITCRASQSISSWLAWYQQKPGKAPKLLIYKASSLESGVPSRFSGSGSGTEFTLTISGLQPDDFATYYCQQYINYWTFGQGTKVEIK | binds
24 | CL-444691 (antibody, V domains shown) VH: QVQLVESGGGVVQPGRSLRLSCAASGFTFSNYGMHWVRQAPGKGLEWVAVIWYDGSNKFYADSVKGRFTISRDNSKNTLYLQMNSLRAEDTAVYYCARDGGYNKNSGSYGWFDPWGQGTLVTVSS VL: DIQMTQSPSTLSASVGDRVTITCRASQSVSTWLAWYQQKPGKAPKLLIYKASSLESGVPSRFSGSGSGTEFTLTISSLQPDDFATYYCQQYNSYFTFGQGTRLEIK | binds
